The DeepSol protein solubility set

test: soluble on expression in E. coli; label from the status in PepcDB or PDB records

**Q.** Which “soluble on expression in E. coli” value does the source give for “MSSQMKAFLNELQGNMEVVGEFFDNPEKVIRKFGIVGREKEALLIRDLNDMDDYALSIQNSVASPSGAHSSTCHFVRQDLQSA” here?
**A.** The value was “not soluble”.

**Q.** Which “soluble on expression in E. coli” value does the source give for “MSSQTILSVNNLSVSFTTNDGIVDAVKNVSFELQAGETLSIVGESGSGKSVSTNALMTLLPDNAIVHPDSSIMFEGESILDKTERQMQRIRGDRIGMIFQEPMTSLNPYMRVGIQVAEAMMCHRSVNQRKAKERVLELFDLVHLPNPQQAYDKYPHEFSGGQLQRIMIAMALINEPDILIADEPTTALDVTVQAEVLLLIKEIQAKMGMAILFITHDLGVVKHFADRVLVMCKGEVVEEGITEHLFSEPQHEYTKMLINSIPKGSKTPVDEKASELLNAEDIR” here?
**A.** Its value is “not soluble”.

**Q.** With “MSSRGVTAPQGFVAAGATAGIKPSGNKDMALVVNQGPEFVGAAVFTRNRVVASPVKYTKKAVANGTLRAVLYNSGNANACNGVQGDKDVHEIVDYLASKLKVDPLDIAACSTGLIGEPLPVTMIKAGVDKLIPALGDNGGEAADSIMTTDTVAKETVVKCNGWTLGGMGKGVGMMAPSLATMLVCLTTDACVTQAQAHAALSKACDVTFNTLDIDGSTSTNDTVILLANGASGITPTESEFNDAVLQACADIADQLQADAEGVTKRVRITVTGTTTDSQALNAARTLGRDNLFKCAMFGSDPNWGRVLAAVGMADADMDPDNISVYFNDQPVCLQSGGTPEARQVDLSGIDIDVRVDLGTGGPGKAFVRTTDLSHQYVEINSAYSSLEHHHHHH” as the sequence, how does the “soluble on expression in E. coli” value read?
**A.** The value was “not soluble”.

**Q.** Which “soluble on expression in E. coli” value does the source give for “MSSRQGGKMKPLKQKKKQQQDLDPEDIAFKEKQKADAAAKKALMANMKSGKPLVGGGIKKSGKK” here?
**A.** The value was “soluble”.

**Q.** For “MSSSSSSRIHNGEDVYEKAEEYWSRASQDVNGMLGGFEALHAPDISASKRFIEGLKKKNLFGYFDYALDCGAGIGRVTKHLLMPFFSKVDMEDVVEELITKSDQYIGKHPRIGDKFVEGLQTFAPPERRYDLIWIQWVSGHLVDEDLVDFFKRCAKGLKPGGCIVLKDNVTNHEKRLFDDDDHSWTRTEPELLKAFADSQLDMVSKALQTGFPKEIYPVKMYALKPQHTGFTNN”, which “soluble on expression in E. coli” value is on record?
**A.** Its value is “not soluble”.

**Q.** With “MSSSTTDDDSCSYFFFRQACLIPTPSVPTHPSVSIKIYPPFAEFIDFGGASRHILTNNGTCRIVFKVKCSNNLVFKVSPVYAFLDPGATAELQVLRREGPPKHDKLIISLKEAKKGDKDPRVTFNDSTHTTHKHILPLLTRIVEEQ” as the sequence, how does the “soluble on expression in E. coli” value read?
**A.** The value was “not soluble”.

**Q.** For “MSSTAVVPSAPGPGPGPSGGPGGGTEVIQVTNVSPSASSEQMRTLFGFLGKIDELRLFPPDDSPLPVSSRVCFVKFHDPDSAVVAQHLTNTVFVDRALIVVPYAEGVIPDETKALSLLAPANAVAGLLPGGGLLPTPNPLTQIGAVPLAALGAPALDPALAALGLPGTNLNSQSLAADQLLKLMSTVDPKLNHVAAGLVSPSLKSDTSSKEIEEAMKRVREAQSLISAAIEPDKKEEKRRHSRSRSRSRRRRTPSSSRHRRSRSRSRRRSHSKSRSRRRSKSPRRRRSHSRERGRRSRSTSKARD”, which “soluble on expression in E. coli” value is on record?
**A.** The value was “soluble”.

**Q.** Which “soluble on expression in E. coli” value does the source give for “MSSVAPSVRLFFALWPQEAVRKQLARLARRIADQCAGRCVRPENLHLTLAFIGEVDSSVVPILRQAGSAIHRTSFDLLLDKLHCWGKGSIIAAGVSQPCGELTVLVQDLRNQLSAAGVRYDTVKFVPHVTLVRNAKREPEQKHFPETIPPVAWAADRWSLVQSRPTPYGSAYQSFADWALASQDFDEHHRA” here?
**A.** Its value is “not soluble”.

**Q.** For “MSSVKRSLKQEIVTQFHCSAAEGDIAKLTGILSHSPSLLNETSENGWTALMYAARNGHPEIVQFLLEKGCDRSIVNKSRQTALDIAVFWGYKHIANLLATAKGGKKPWFLTNEVEECENYFSKTLLDRKSEKRNNSDWLLAKESHPATVFILFSDLNPLVTLGGNKESFQQPEVRLCQLNYTDIKDYLAQPEKITLIFLGVELEIKDKLLNYAGEVPREEEDGLVAWFALGIDPIAAEEFKQRHENCYFLHPPMPALLQLKEKEAGVVAQARSVLAWHSRYKFCPTCGNATKIEEGGYKRLCLKEDCPSLNGVHNTSYPRVDPVVIMQVIHPDGTKCLLGRQKRFPPGMFTCLAGFIEPGETIEDAVRREVEEESGVKVGHVQYVACQPWPMPSSLMIGCLALAVSTEIKVDKNEIEDARWFTREQVLDVLTKGKQQAFFVPPSRAIAHQLIKHWIRINPNL”, which “soluble on expression in E. coli” value is on record?
**A.** The value was “soluble”.

**Q.** Which “soluble on expression in E. coli” value does the source give for “MSTCPIDPPALRAAFAGPLDPQHAEVLLSRYDQHASRLLDALHALYGQRADYASWLAQWLGEVGDIARQRPQALQTLDSTRHAGWFGQPHMLGYSAYADRFAGTLQGVAERVPYLQELGVRYLHLLPFLRARAGDNDGGFAVSDYGQVEPSLGSNDDLVALTSRLREAGISLCADFVLNHTADDHAWAQAARAGDARYLDYYHHFADRTVPDRYEATLGQVFPHTAPGNFTWVDDTAQWMWTTFYPYQWDLNWSNPAVFGDMALAMLRLANLGVEAFRLDSTAYLWKRIGTDCMNQSEAHTLLVALRAVTDIVAPAVVMKAQAIVPMTQLPPYFGSGVDEGHECHLAYHSTLMAAGWSALALQRGDILHNVIAHSPPLPRHCAWLSYVRCHDDIGWNVLQHEACGNAAQPPFSLRDVARFYANAVPGSYARGESFQSSGDGVHGTNGMAAALAGIQAAQEAGDAAALAVAVDRLVLLYAIALAMPGVPLIYMGDELAMVNDPGYRDDPHRQHEGRWLHRPAMDWQLAAQRHDAKSLSGTVYRRLRGLIRQRAALGALAADQALASIALNDPRVFALTRGDSFIALHNFSDQLLDVELAAIGVDGWTLLAIDDAIGGAAARGDGSIVLPPYGVRWLQRGTEHAPE” here?
**A.** Its value is “soluble”.

**Q.** For “MSTLRVACVIPTYNGCQDLARLLDSLEIQSAPFDTLIVDSSSSDGTYELALARCANVLRIDSRDFNHGGTRQLMVERNADYDLYVFMTQDAYLEDAEGLARIVAPFADPQVGAVCGRQLPHLDASPLASHARLFNYPPTSQVKSLADVPALGIKTAFMSNSFSAYRREALMQVGGFPNHVILSEDMYVGAKMLLAGWKVAYEGSACCRHSHNYSLKEEFRRYFDIGVFHAREPWIRQAFGGAGGEGLRYVQSELRFLGPGRLGQWPGSLLRNAVKLFAYKLSQQERYLPLGLKRKLGMYKRYWDSPYALEHHHHHH”, which “soluble on expression in E. coli” value is on record?
**A.** The value was “soluble”.

**Q.** Which “soluble on expression in E. coli” value does the source give for “MSTLYHTCDKIEQRIIWIDCEMTGLDVEKQTLCEIALIVTDSELNTIATGPDIVIHQPKEVLDNMEEWPRNTFHENGLMEKIIASKYSMADAENEVIDFLKLHALPGKSPIAGNSIYMDRLFIKKYMPKLDKFAHYRCIDVSTIKGLVQRWYPDYKHPKKQCTHRAFDDIMESIAELKNYRESIFVKSTASSF” here?
**A.** Its value is “not soluble”.

**Q.** With “MSTPIIPWMGGKRRLADRLIPLFPPHECYVEVFAGGAALYFMRPQAAPVEVLNDINGDLVNLYRVVQNHLEEFVRQFKWALSSRQVFEWQKMTRPETLTDIQRAARFFYLQHHAFAGKVSGQTFGTATTGPAINLLRIEENLSAAWQRLSGTYVENLPWLECAERYDRPQTFHYMDPPYWQTAGYGVDYPFENYERMADFMRTCKGKVMVSINDHPDIRRVFEEFHFETVDIRYTSSNQRRGRTDVVGELVIMNWEP” as the sequence, how does the “soluble on expression in E. coli” value read?
**A.** The value was “not soluble”.

**Q.** For “MSTQMSVFLSTQAAQPQWGEKALISFAEQGATIHLQQTQDFSAIQRAARKLDNQGIRTAFLAGEGWDLESIWAFYQGYRDAKKRNTVEWKALAAAEQVELEARIKATDWTRDIINKSAEEVAPRQLATMAAEFIKSLAPDHVSYRIVKDKDLLTEGWEGIYAVGRGSERTSAMLQLDYNPTGDENAPVFACLVGKGITFDSGGYSLKPSNMMSAMKADMGGSGMITGALGLAIMRGFNKRVKLILCCAENMVSGRALKLGDIITYKNGKTVEIMNTDAEGRLVLADGLIYASEQKPQLIIDCATLTGAAKNALGNDYHALLSYDESLSQQALAAAKEENEALWALPLAEFHREMLPSNFADLSNISNGDYTPGASTAAAFLSYFVEGYQKGWLHFDCSATYRKSASDKWAAGATGMGVKMLARILMQQA”, which “soluble on expression in E. coli” value is on record?
**A.** The value was “not soluble”.

**Q.** With “MSTQSILTKPTEATAFQPDQVVRILETVLLTTPEPLSISDLKKLFEGNIDKKTLHESLTILSEKWHDSGINLVSVAGGWRFQSKPEMQVFLDRLNPQRPPRYSRAVMETLAIIAYRQPVTRGDIEEIRGVAVSTQIIKTLESRGWIETIGQRDIPGKPYLYATTRHFLDDLNLQSLEQLPSLDSFNSLDLSADEAESVDTDTTTIQESGEPASHEPTQLL” as the sequence, how does the “soluble on expression in E. coli” value read?
**A.** The value was “not soluble”.
